Measured values as given in article PMC6510727 (2019).
Like-named read-outs stand apart in the source and are kept apart here. Blank lines part the entries; values can stand above or below the binder they belong to.

What was measured:
[1] = target: transducin α (Tα*) (Bos taurus, UniProt P04695); experiment: PDE activation assay fit (membranes)
[2] = target: T1, PDE catalytic subunit (PDEcat) (Bos taurus, UniProt P11541); experiment: PDE activity assay (membranes)
T1 chain 1: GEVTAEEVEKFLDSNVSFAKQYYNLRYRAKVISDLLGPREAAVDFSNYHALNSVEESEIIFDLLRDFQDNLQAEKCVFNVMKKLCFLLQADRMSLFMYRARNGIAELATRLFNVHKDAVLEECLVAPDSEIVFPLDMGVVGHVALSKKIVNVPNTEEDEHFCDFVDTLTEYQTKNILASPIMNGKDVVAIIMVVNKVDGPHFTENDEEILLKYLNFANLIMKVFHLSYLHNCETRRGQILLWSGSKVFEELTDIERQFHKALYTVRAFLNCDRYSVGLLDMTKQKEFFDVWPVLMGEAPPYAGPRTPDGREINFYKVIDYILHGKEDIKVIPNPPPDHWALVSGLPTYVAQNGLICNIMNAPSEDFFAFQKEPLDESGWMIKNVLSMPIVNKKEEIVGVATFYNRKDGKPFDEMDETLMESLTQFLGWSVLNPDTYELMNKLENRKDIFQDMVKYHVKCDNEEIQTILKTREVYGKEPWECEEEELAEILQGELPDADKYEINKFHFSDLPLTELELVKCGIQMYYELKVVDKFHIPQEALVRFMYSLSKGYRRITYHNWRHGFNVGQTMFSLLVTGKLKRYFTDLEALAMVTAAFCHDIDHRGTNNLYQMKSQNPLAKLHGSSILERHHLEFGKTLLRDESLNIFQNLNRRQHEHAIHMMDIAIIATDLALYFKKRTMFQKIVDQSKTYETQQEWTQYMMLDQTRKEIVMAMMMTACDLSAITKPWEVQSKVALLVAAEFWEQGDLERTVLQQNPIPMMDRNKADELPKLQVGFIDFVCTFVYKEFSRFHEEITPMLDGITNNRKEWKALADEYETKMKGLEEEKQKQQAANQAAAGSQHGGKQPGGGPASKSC
T1 chain 2: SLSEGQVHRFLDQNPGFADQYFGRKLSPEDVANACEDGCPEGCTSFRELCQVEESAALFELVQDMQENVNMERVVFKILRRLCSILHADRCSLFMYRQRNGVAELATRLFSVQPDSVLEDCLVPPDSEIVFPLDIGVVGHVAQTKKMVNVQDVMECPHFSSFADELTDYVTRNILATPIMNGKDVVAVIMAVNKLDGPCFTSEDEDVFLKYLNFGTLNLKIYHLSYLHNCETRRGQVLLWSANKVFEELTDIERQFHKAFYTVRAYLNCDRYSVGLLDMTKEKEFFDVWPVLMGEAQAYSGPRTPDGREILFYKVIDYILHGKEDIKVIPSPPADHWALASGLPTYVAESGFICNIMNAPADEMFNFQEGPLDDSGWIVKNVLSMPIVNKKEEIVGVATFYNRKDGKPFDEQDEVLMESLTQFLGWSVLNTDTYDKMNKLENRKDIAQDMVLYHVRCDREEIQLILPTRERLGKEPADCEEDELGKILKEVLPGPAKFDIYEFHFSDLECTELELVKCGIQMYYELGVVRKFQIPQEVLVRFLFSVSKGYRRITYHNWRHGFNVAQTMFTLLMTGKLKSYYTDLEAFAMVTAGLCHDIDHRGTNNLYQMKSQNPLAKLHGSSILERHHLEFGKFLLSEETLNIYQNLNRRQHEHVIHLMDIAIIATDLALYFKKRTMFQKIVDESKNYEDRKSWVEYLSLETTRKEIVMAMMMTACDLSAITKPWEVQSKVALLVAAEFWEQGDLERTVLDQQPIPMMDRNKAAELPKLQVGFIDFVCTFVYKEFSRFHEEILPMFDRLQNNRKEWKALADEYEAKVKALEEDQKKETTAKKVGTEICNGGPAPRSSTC

[3] = target: T1, PDE catalytic subunit (PDEcat)
[4] = target: transducin α (Tα-S*) (Bos taurus, UniProt P04695); experiment: PDE activation assay fit (solution)
Chain of transducin α (Tα-S*) (P04695 2-350): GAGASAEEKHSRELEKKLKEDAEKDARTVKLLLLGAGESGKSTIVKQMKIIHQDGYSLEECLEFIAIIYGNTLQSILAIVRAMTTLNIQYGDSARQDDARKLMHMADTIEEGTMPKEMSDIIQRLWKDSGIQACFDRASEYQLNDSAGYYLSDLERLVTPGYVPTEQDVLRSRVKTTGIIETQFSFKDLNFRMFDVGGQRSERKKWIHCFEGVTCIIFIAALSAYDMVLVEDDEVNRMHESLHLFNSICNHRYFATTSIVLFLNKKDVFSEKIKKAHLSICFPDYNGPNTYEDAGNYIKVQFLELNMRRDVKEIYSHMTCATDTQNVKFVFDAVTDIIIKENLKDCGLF

Chain of transducin α (Tα*) (P04695 2-350): as above

Kd [1]: 0.0565 nM
B1: PDEγ (protein)
chain: MNLEPPKAEIRSATRVMGGPVTPRKGPPKFKQRQTRQFKSKPPKKGVQGFGDDIPGMEGLGTDITVICPWEAFNHLELHELAQYGII
modifications: activated Tα, membranes

Kd [2]: 0.055 nM
B2: PDEγ (protein)
chain: MNLEPPKAEIRSATRVMGGPVTPRKGPPKFKQRQTRQFKSKPPKKGVQGFGDDIPGMEGLGTDITVICPWEAFNHLELHELAQYGII
modifications: membranes

Kd [3]: 0.005 nM
B3: PDEγ (protein)
chain: MNLEPPKAEIRSATRVMGGPVTPRKGPPKFKQRQTRQFKSKPPKKGVQGFGDDIPGMEGLGTDITVICPWEAFNHLELHELAQYGII

Kd [4]: 4.5 nM
B4: PDEγ (protein)
chain: MNLEPPKAEIRSATRVMGGPVTPRKGPPKFKQRQTRQFKSKPPKKGVQGFGDDIPGMEGLGTDITVICPWEAFNHLELHELAQYGII
modifications: GTPγS-bound Tα
